The text below walks through data of patent US20230287088A1 (BIONTECH, published 2023).

For assay [1], the target named is T1, Human-Fc-tagged SARS-CoV2 S1 recombinant protein (Sino Biologicals) (SARS-CoV-2, UniProt P0DTC2 16-685).
For assay [2], the target named is T2, Mouse-Fc-tagged SARS-CoV2 S1-RBD (Sino Biologicals) recombinant protein (SARS-CoV-2, UniProt P0DTC2 319-541).
T2 construct: domain: S1-RBD
Kind of assay: competition ELISA: blocks S1-RBD-mFc binding to coated ACE-2 ECD.

Assay [3] addresses T3, His-tagged SARS-CoV S1-RBD (Sino Biologicals) (SARS-CoV, UniProt P59594 306-527).
T3 construct: domain: S1-RBD; Bought reagent
Kind of assay: ELISA, His-tagged SARS-CoV S1-RBD coated, anti-human Fc detection.

For assay [4], the target named is T1, Human-Fc-tagged SARS-CoV2 S1 …. The assay can be described thus: ELISA on coated S1-hFc, 3 µg/ml; rabbit antibody in B-cell supernatant. A general note: In an ELISA, binding on a coated surface is turned into a signal by an enzyme label.
The target in assay [5] is T2, Mouse-Fc-tagged SARS-CoV2 S1-RBD (Sino …). Kind of assay: SPR, S1-RBD-mFc captured via anti-mouse-Fc antibody, 1:1 model. (In general: Surface plasmon resonance follows binding to a sensor surface in real time, without labels.)
The target is the same in assay [6]. Kind of assay: SPR (Biacore T200), RBD-mFc captured via anti-mouse-Fc on CM5, 1:1 model.
Assay [7] shares this target. Kind of assay: ELISA on coated S1-RBD-mFc.
In assay [8] the target is T1, Human-Fc-tagged SARS-CoV2 S1 …. Kind of assay: ELISA on coated S1-hFc, 0.85 µg/ml; rabbit antibody in B-cell supernatant.
For assay [9], the target named is T2, Mouse-Fc-tagged SARS-CoV2 S1-RBD (Sino …).

Read-outs that look alike come from different tables or passages of the source.

B1: P043.A.00047.H08 (protein sample ID 447) (antibody, V domains shown)
VH: QSLEESGGDLVKPGASLTLTCTASGFSFSSDGMCWVRQAPGKGLEWIACIAAGSSGSTYYATWAQGRFTISKSSSTTVTLQMTSLTAADTATYFCAGEDYTGNNYYALWGPGTLVTVSS
VL: AIDMTQTPSPVSAVVGDTVTINCQASENIYSFLAWYQQKPGQPPKLLIYFASKLASGVPSRFKGSGSGTQFTLTISDVHSDDAAIYYCQQTGTYSDADNTFGGGTEVVVK
notes: also called antibody with the Protein sample ID 447
For orientation: IC50 means the concentration at which inhibition is half-maximal. The EC50 is the concentration needed to bring the measured effect to its halfway point. A word on the Kd: it is the constant that tells how readily two partners part at equilibrium. For orientation: kon means the rate constant with which the complex forms. One may read the koff as the rate constant with which the complex falls apart. In the case of B1, the IC50 stood at 0.0163 µg/mL in [1] and 0.0299 µg/mL in assay [2]. For the same molecule, the EC50 in assay [3] is 0.0081 µg/mL; in assay [4], 0.0195 µg/mL; in assay [7], 9.6 ng/mL. In addition, the Kd in assay [5] is 0.228 nM. Further, in assay [5], the kon stood at 296000 M⁻¹ s⁻¹. The koff in assay [6] is 6.72e-05 s⁻¹.

B2: P043.A.00095.D06 (protein sample ID 470) (antibody, V domains shown)
VH: QEQLEESGGDLVKPEGSLTLTCTASGFSFSSNYWICWVRQAPGKGLEWIGCIYIGSGDTYYASWAKGRFTISKTSSTTVTLQMTSLTAADTATYFCARSYTPGSYYNMNLWGPGTLVTVSS
VL: DVVMTQTPSSVSAAVGGTVTINCQASQQISNELSWYQQKSGQPPKLLIYDASDLASGVPSRFKGSGSGTEFTLTISDLESADAATYYCQSTGGASSDGNAFGGGTEVVVK
notes: also called S1 targeting antibody 470; anti-S1-antibody 470
B2: the IC50 in assay [1] is 0.0127 µg/mL; in assay [2], 0.0196 µg/mL. For the same molecule, the EC50 is 0.0101 µg/mL in [8] and 8.6 ng/mL in [7]. Besides, the Kd in assay [9] amounted to 0.0104 nM.

B3: P043.A.00117.C08 (protein sample ID 469) (antibody, V domains shown)
VH: QSLEESGGGLVKPEGSLTLTCKASGFDLNTYYYMCWVRQAPGKGLEWIACIGTSDSGHTAYASWARGRFTISKTSSTTVTLQMTGLTAADTATYFCARGGRSVGDGVDLWGPGTLVTVSS
VL: DIVMTQTPASVEAAVGGTVTIKCQASQSISSWLAWYQQKPGQPPKLLIYDAFDLASGVPSRFKGSGSGTEFTLTISDLESADAATYYCQSYLYGESGSHGFGFGGGTEVVVR
Consider B3, for which the IC50 in assay [1] was found to be 0.0142 µg/mL; in assay [2], 0.0192 µg/mL. For the same molecule, the EC50 was determined as 0.0885 µg/mL in assay [3], 0.0151 µg/mL in assay [8] and 6.2 ng/mL in assay [7].
